Data on four molecules can be found in patent publication US12123009B2, “Methods and compositions for PPO herbicide tolerance in plants” (Monsanto Technology LLC, priority 2015, dated 2024).

For one assay, the system named is transgenic maize plants. As to the kind of experiment: R0 transgenic maize 40 g/ha S-3100 spray test. The class given is in vivo. Conditions: for Average Injury / Highly Tolerant (number of plants with less than 10% injury): 40 grams/ha S-3100 at V5, 7 days after treatment, R0 plants; for injury rates when expressed in transgenic plants (crop tolerance to a PPO herbicide): R0 transgenic maize data. From the text:
H_N60 (SEQ ID NO:3). […] These five constructs had the same promoter plus leader plus intron combination, with two different targeting peptide (TP) sequences, and the same 3′UTR sequence. Leaf samples were taken from the R0 plants and analyzed by PCR to determine the transgene copy number. Single copy plants for up to 12 unique events per construct were transplanted to pots, selfed and outcrossed to generate R1 and F1 seed, respectively, for future testing. Multi-copy plants and extra single copy plants were sprayed with 40 grams/ha 5-3100 at approximately the V5 growth stage and injury ratings were taken 7 days after treatment. The average percent (%) injury for all plants expressing each PPO enzyme and the number of plants that were deemed highly tolerant (less than 10% injury) was noted, where each plant is a unique single or multi-copy transformant.

The subject of the next assay is R0 soybean plants. The experiment in a line: R0 transgenic soybean herbicide tolerance at eleven weeks. The settings on record: R0 plants sprayed with S-3100 at eleven weeks, rated seven days after treatment. The assay is classed as in vivo. The protocol: The plantlets in the non-sprayed containers corresponding to constructs having a score of 2 were transplanted at approximately 7 weeks post transformation and grown as R0 plants using standard methods known in the art. Plantlets corresponding to non-tolerant scores of 0 and 1 were also grown to serve as negative controls. The R0 plants were grown in a greenhouse under long-day nursery conditions (18 hr light at 80° F. then 6 hr dark at 74° F.) for approximately four weeks. At eleven weeks, the R0 plants were sprayed with two passes of the same herbicide solution (0.3 g of 5-3100) described above. Herbicide injury ratings were collected seven days after treatment.
The results of the herbicide tolerance application at eleven weeks to the R0 plants confirmed the low percent injury rating scores observed in the high-throughput screen at five weeks. Any injury rating of 30% or above was equivalent to non-transgenic soybean injury ratings. A few of the constructs stood out as providing very good tolerance to the herbicide application. […] Data are provided in Table 10, where n.d. indicates the analysis was not conducted.

In the next assay the test system is soybean plantlets. As to the kind of experiment: High-throughput soybean screening for herbicide tolerance (plantlets). The class given is in vivo, soybean (A3555). The arrangement: key: 0 for poor tolerance, high damage, low green coloration; 1 for some tolerance, average damage, moderate green coloration; 2 for good tolerance, low damage, high green coloration. Conditions: S-3100 spray five weeks post-transformation, scored day four. From the text:
A high-throughput plant transformation and screening method was used to evaluate large numbers of constructs in transgenic plants for herbicide tolerance in early transformation plantlet tissue. This allowed for faster and higher volume screening of construct configurations and PPO enzymes.
This permitted the side-by-side comparison of seven different HemG PPO enzymes with thirty-seven different targeting peptides using the same promoter and 3′UTR elements for gene expression. These plant transformation constructs were used to transform soybean excised embryos (germplasm A3555) using A. tumefaciens and standard methods known in the art. Four hundred explants were inoculated for each construct resulting in twelve containers per construct. A sterile PPO herbicide solution was used for herbicide tolerance testing. The herbicide solution consisted of 0.3 g of S-3100 in crop oil concentrate (5.0 mL) and 495 mL of deionized water. This was filtered through a 0.45 micron Nalgene® Rapid-Flow™ Tissue Culture Filter Unit and Surfactant-Free Cellulose Acetate membrane filter unit (VWR, Radnor, PA, USA). The resulting sterile solution was shaken before application.
At five weeks post-transformation, four of the twelve plant containers per construct were sprayed with two passes of the sterile PPO herbicide solution. The treated plantlets were then enclosed in the container and received at least 15 hours of light exposure post spray each day for four days. At the end of day four post application of S-3100, the treated plantlets were photographed and scored on a visual scale of green coloration (green coloration was representative of healthy photosynthetic plant tissue as compared to photo-bleached tissue) versus damage. The scoring values were 0 for poor tolerance, high damage, low green coloration; 1 for some tolerance, average damage, moderate green coloration; and 2 for good tolerance, low damage, high green coloration. The scoring for each construct is presented in Table 9, where n.d. indicates the analysis was not conducted.

B1: H_N110: microbial HemG protoporphyrinogen oxidase, SEQ ID NO:10 (protein, listed as Enterobacter mori)
chain: MKILILFSTRDGQTREIAASLASELKEQAFDVDVVNLHRAENIAWEEYDGVVIGASIRYGHFHSTLNSFVKKHQQALKKLPGAFYSVNLVARKPEKRTPQTNSYTRKFLLDSPWQPDLSAVFAGALRYPRYNWYDRIMIRLIMKITGGETDTRKEVVYTDWQQVTHFAHEIVQLVRK
Consider B1, for which, in the assay on transgenic maize plants, the “Average Injury” value is reported as 43.0%, the “Highly Tolerant (number of plants with less than 10% injury)” value is “did not produce any highly tolerant plants” and the “injury rates when expressed in transgenic plants (crop tolerance to a PPO herbicide)” value is “reduced injury rates”.

B2: H_N60: microbial HemG protoporphyrinogen oxidase, SEQ ID NO:3 (protein, listed as Pantoea stewardii)
chain: MKALILYSTRDGQTRKIASSIADVIRQQQQCDVLNIKDASLPDWAQYDRVLIGASIRYGHFQPVVDKFVKQHLHELQQRTSGFFSVNLTARKPEKRSPETNAYTQKFLAHSPWQPDCCAVFAGALYYPRYRWFDRVMIQLIMRMTGGETDSTKEVEYTDWQQVSTFANDFAQLPGKS
Take B2: in the assay on transgenic maize plants, the “Average Injury” value was 55.8%, the “Highly Tolerant (number of plants with less than 10% injury)” value was 19 and the “injury rates when expressed in transgenic plants (crop tolerance to a PPO herbicide)” value is on record as “reduced injury rates”.

B3: H_N100: microbial HemG protoporphyrinogen oxidase, SEQ ID NO:9 (SEQ ID NO:17 lacking start methionine; variant 20) (protein, listed as Enterobacter cloacae)
chain: MKTLILFSTRDGQTREIAAFLASELKEQGIYADVINLNRTEEIAWQEYDRVVIGASIRYGHFHPAVDRFVKKHTETLNSLPGAFFSVNLVARKAEKRTPQTNSYTRKFLLNSPWKPAACAVFAGALRYPRYRWYDRFMIRLIMKMTGGETDTRKEVVYTDWSQVASFAREIVQLTRSSRL
On to B3, for which the percent injury score in the assay with R0 soybean plants (TP10) stood at 35%; in the assay with R0 soybean plants (TP12), 50%; with R0 soybean plants (TP15), 30%; in the assay on R0 soybean plants (TP20), 35%; in the assay with R0 soybean plants (TP22), 30%; with R0 soybean plants (TP23), 35%. Also, the percent injury score in the assay on R0 soybean plants (TP28) stood at 35%; in the assay on R0 soybean plants (TP29), 40%; in the assay with R0 soybean plants (TP32), 40%; in the assay with R0 soybean plants (TP35) it was 35%. Moreover, the coloration score is on record as 0 in the assay with soybean plantlets (TP9); 1 in the assay with soybean plantlets (TP10); 0 in the assay on soybean plantlets (TP11); 2 in the assay on soybean plantlets (TP12); 0 in the assay on soybean plantlets (TP13); 1 in the assay on soybean plantlets (TP14). The coloration score in the assay with soybean plantlets (TP15) is 2; in the assay with soybean plantlets (TP16) it was 1; in the assay with soybean plantlets (TP17), 1; in the assay on soybean plantlets (TP18), 1; with soybean plantlets (TP19), 1; with soybean plantlets (TP20), 2. The coloration score in the assay on soybean plantlets (TP21) worked out at 0; with soybean plantlets (TP22) it was 2; in the assay on soybean plantlets (TP23), 2; in the assay with soybean plantlets (TP24), 0; in the assay on soybean plantlets (TP25), 1; in the assay on soybean plantlets (TP27), 1. The coloration score with soybean plantlets (TP28) is 1; in the assay on soybean plantlets (TP29), 1; with soybean plantlets (TP30), 1; in the assay with soybean plantlets (TP31), 1; in the assay with soybean plantlets (TP32), 2; in the assay with soybean plantlets (TP33), 1. Besides, the coloration score with soybean plantlets (TP34) turned out to be 0; in the assay with soybean plantlets (TP35) it was 1; in the assay with soybean plantlets (TP36), 1.

B4: H_N50: microbial HemG protoporphyrinogen oxidase, SEQ ID NO:7 (SEQ ID NO:16 lacking start methionine) (protein, listed as Shimwellia blattae)
chain: MKTLILFSTRDGQTHKIARHIAGVLEEQGKACELVDLLQPGEPDWSTVECVVLGASIRYGHFHKSFIRFVNTHAQRLNNMPGALFTVNLVARKPEKQSPQTNSYTRKFLAASPWQPQRCQVFAGALRYPRYSWYDRMMIRLIMKMAGGETDTRKEVEYTDWQSVTRFAREIAQLPGETR
For B4, the percent injury score in the assay with R0 soybean plants (TP9), in the assay with R0 soybean plants (TP13), with R0 soybean plants (TP14), in the assay on R0 soybean plants (TP15), in the assay on R0 soybean plants (TP17) and in the assay with R0 soybean plants (TP22) was 40% each time. Also, the percent injury score with R0 soybean plants (TP25) came out at 35%. In addition, the coloration score is listed as 1 in the assay on soybean plantlets (TP9); 1 in the assay with soybean plantlets (TP10); 0 in the assay with soybean plantlets (TP11); 1 in the assay with soybean plantlets (TP12); 1 in the assay on soybean plantlets (TP13); 1 with soybean plantlets (TP14). Also, the coloration score with soybean plantlets (TP15) is given as 2; in the assay with soybean plantlets (TP16), 0; in the assay on soybean plantlets (TP17), 1; with soybean plantlets (TP18) it was 1; in the assay with soybean plantlets (TP19) it was 0; in the assay on soybean plantlets (TP21), 1. Further, the coloration score in the assay with soybean plantlets (TP22) is 2; in the assay on soybean plantlets (TP23) it was 1; with soybean plantlets (TP24), 1; with soybean plantlets (TP25), 2; with soybean plantlets (TP26), 1; with soybean plantlets (TP27), 1. The coloration score was 1 in the assay on soybean plantlets (TP28); 1 with soybean plantlets (TP29); 1 in the assay on soybean plantlets (TP30); 0 in the assay on soybean plantlets (TP31); 1 in the assay on soybean plantlets (TP32); 1 with soybean plantlets (TP33). Moreover, the coloration score in the assay on soybean plantlets (TP34), with soybean plantlets (TP36) and in the assay with soybean plantlets (TP37) was 0 in each case.
